Measurements taken from the supplement of paper PMC10065799, “High-throughput profiling of sequence recognition by tyrosine kinases and SH2 domains using bacterial peptide display” (eLife, 2023).

How the values were obtained:
c-Src SH2 = experiment: SH2 binding enrichment of the phosphorylated peptide, bacterial display (enrichment ratio); higher = better substrate or ligand; peptides without Tyr show the background
SHP2-C SH2 = experiment: as above
Grb2 SH2 = Grb2 SH2 (UniProt P62993); experiment: as above
Chain of Grb2 SH2 (P62993 whole entry, looked up): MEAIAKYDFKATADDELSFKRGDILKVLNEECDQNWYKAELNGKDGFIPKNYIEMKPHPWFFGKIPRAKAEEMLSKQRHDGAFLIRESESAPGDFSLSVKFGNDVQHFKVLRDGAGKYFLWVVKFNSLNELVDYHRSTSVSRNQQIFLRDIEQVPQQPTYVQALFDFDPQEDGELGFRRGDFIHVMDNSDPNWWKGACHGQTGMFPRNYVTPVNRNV

FGFR1 = FGFR1 (UniProt P11362); experiment: phosphorylation enrichment, bacterial display (enrichment ratio); higher = better substrate or ligand; peptides without Tyr show the background
Chain of FGFR1 (P11362 whole entry, looked up): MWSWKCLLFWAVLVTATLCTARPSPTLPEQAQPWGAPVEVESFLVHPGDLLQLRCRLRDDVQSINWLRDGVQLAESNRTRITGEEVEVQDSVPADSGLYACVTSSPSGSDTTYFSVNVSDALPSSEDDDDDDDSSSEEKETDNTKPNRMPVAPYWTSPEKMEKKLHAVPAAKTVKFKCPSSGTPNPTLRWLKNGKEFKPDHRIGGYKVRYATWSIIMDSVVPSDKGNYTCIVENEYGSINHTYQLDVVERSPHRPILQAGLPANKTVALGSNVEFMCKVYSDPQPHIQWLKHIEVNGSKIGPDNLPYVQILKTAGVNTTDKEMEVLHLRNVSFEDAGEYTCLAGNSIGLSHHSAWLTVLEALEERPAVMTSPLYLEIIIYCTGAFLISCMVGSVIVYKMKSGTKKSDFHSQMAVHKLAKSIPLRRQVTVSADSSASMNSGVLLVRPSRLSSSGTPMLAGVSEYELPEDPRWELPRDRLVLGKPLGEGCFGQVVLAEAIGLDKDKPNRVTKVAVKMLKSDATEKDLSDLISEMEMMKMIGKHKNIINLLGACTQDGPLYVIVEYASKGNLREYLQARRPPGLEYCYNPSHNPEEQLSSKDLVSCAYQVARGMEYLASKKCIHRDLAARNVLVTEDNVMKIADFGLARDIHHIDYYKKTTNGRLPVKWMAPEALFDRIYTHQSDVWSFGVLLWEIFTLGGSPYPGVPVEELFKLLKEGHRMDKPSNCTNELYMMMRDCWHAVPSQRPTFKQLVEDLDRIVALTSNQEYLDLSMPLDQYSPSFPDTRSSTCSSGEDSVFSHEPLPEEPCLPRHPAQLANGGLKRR

Jak2 = Jak2 (UniProt O60674); experiment: as above
Chain of Jak2 (O60674 whole entry, looked up): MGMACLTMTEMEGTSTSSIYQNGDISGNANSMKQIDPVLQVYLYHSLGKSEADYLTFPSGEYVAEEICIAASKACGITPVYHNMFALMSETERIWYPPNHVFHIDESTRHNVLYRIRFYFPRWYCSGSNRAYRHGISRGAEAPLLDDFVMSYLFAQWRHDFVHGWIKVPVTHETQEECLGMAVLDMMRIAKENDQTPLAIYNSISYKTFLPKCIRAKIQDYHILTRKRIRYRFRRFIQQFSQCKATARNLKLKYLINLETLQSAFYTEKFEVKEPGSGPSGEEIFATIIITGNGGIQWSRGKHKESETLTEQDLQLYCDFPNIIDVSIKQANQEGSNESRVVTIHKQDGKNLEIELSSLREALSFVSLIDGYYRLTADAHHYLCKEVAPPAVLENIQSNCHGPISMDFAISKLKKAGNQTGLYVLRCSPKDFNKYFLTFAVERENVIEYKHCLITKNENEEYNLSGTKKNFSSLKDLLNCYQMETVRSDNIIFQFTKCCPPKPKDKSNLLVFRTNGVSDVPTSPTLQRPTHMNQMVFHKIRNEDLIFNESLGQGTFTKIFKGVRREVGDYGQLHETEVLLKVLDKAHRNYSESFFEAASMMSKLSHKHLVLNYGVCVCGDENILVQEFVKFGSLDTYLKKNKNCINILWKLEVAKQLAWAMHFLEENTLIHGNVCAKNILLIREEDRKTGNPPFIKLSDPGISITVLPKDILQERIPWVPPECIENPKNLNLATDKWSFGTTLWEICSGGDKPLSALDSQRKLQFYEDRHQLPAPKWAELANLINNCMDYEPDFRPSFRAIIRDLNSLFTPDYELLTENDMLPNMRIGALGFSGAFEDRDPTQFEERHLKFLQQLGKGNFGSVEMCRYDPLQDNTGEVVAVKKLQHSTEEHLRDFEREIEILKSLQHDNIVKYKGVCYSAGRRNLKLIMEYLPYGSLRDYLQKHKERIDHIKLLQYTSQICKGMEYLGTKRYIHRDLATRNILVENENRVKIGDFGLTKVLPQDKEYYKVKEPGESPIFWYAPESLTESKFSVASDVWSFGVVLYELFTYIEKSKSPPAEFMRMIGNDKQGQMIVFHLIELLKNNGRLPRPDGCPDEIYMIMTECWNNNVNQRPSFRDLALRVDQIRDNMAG

EPHB2 = EPHB2 (UniProt P29323); experiment: as above
Chain of EPHB2 (P29323 whole entry, looked up): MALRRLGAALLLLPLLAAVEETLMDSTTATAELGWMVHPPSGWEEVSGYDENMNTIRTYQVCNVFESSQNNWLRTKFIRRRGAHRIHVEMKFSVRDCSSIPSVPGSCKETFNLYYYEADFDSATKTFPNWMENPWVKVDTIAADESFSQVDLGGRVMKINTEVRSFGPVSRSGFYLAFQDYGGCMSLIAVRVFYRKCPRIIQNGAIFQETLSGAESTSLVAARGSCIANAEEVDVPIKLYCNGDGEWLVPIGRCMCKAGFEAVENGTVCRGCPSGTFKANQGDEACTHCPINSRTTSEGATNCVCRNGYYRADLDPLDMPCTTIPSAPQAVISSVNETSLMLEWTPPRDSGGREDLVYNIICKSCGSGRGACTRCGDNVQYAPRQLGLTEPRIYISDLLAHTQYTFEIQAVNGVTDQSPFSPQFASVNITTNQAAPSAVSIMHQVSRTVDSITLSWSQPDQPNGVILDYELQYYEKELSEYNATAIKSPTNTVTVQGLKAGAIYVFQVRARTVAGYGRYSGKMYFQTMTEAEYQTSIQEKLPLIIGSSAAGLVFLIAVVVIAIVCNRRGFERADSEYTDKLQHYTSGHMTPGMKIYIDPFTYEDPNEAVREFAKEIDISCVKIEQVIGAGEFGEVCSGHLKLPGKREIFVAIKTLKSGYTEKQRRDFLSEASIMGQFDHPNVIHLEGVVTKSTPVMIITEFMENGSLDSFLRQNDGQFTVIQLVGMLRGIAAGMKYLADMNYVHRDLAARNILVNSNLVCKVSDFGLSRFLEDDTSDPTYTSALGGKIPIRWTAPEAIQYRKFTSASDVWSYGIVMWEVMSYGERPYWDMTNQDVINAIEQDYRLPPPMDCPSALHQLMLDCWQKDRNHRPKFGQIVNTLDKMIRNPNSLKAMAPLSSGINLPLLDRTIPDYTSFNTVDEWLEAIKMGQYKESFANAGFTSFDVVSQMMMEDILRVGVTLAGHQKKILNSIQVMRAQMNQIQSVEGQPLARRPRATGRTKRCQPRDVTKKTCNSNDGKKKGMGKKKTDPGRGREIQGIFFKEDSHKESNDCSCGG

c-Abl (mouse) = experiment: as above
MERTK = MERTK (UniProt Q12866); experiment: as above
Chain of MERTK (Q12866 whole entry, looked up): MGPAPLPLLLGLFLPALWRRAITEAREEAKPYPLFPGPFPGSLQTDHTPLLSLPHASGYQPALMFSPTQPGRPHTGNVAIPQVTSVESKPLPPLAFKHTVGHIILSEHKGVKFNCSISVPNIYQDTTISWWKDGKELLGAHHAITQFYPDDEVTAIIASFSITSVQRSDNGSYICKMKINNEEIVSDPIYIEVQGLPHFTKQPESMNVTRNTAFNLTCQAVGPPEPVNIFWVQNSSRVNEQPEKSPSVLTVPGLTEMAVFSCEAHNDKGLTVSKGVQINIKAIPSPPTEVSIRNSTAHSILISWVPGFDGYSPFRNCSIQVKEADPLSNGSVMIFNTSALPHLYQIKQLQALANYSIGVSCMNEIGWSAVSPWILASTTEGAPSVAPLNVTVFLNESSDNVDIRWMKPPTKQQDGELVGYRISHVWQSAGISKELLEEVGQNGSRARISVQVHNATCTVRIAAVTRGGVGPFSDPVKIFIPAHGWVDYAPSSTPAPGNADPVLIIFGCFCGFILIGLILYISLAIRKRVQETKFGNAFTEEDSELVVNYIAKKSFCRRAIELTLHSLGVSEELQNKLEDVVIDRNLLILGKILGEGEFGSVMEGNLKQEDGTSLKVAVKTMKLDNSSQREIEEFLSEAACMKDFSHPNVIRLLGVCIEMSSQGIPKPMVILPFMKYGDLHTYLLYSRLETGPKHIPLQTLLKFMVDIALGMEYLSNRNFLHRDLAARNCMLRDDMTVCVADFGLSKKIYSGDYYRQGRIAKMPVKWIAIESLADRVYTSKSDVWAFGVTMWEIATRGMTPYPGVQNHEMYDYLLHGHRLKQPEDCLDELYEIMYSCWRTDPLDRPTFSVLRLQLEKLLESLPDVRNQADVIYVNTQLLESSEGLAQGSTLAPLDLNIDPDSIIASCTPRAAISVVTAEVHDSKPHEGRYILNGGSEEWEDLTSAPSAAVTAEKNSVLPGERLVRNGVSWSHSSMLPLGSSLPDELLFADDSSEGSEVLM

FGFR3 = FGFR3 (UniProt P22607); experiment: as above
AncSZ = experiment: as above
Hck = Hck (UniProt P08631); experiment: as above
Chain of Hck (P08631 whole entry, looked up): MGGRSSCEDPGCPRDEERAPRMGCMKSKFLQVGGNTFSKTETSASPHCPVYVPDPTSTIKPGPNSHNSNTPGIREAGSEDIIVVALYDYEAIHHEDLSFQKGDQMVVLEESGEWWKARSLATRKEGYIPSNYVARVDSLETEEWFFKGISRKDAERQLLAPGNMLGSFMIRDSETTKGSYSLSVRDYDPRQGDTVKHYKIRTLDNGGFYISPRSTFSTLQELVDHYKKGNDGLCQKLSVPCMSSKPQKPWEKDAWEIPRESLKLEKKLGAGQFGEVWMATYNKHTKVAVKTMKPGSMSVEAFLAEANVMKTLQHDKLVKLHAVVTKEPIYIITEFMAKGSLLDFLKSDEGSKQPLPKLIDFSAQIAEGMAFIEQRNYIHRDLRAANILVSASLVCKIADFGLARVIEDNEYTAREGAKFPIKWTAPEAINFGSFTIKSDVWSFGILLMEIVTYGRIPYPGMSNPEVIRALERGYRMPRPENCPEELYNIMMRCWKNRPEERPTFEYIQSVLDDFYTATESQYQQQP

Fes = Fes (UniProt P07332); experiment: as above
EPHB1 = EPHB1 (UniProt P54762); experiment: as above
Fyn = Fyn (UniProt P06241); experiment: as above
c-Src = experiment: as above
Fer (mouse) = experiment: as above
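Throughout, for SH2 binding enrichment of the phosphorylated peptide, bacterial display: peptide library displayed on the E. coli surface as eCPX fusions, selected cells deep-sequenced, score is each peptide's frequency after selection divided by its frequency in the input.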
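Throughout, for phosphorylation enrichment, bacterial display: 11-residue human phosphosite peptides and single-mutation variants displayed on the E. coli surface, counted by deep sequencing, each peptide's frequency after selection divided by its frequency in the unselected input library; frequency after pTyr selection over input frequency; kinase dosed for 20-30% of maximal phosphorylation in three min.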

Sequence | SH2 binding enrichment (c-Src SH2) | SH2 binding enrichment (SHP2-C SH2) | SH2 binding enrichment (Grb2 SH2) | phosphorylation enrichment (FGFR1) | phosphorylation enrichment (Jak2) | phosphorylation enrichment (EPHB2) | phosphorylation enrichment (c-Abl (mouse)) | phosphorylation enrichment (MERTK) | phosphorylation enrichment (FGFR3) | phosphorylation enrichment (AncSZ) | phosphorylation enrichment (Hck) | phosphorylation enrichment (Fes) | phosphorylation enrichment (EPHB1) | phosphorylation enrichment (Fyn) | phosphorylation enrichment (c-Src) | phosphorylation enrichment (Fer (mouse))
AAAAMYTFLPD [MYORG_Y36] | 4.32 | 0.744 | 1.12 | 13.5 | 1.31 | 1.46 | 1 | 10.9 | 12 | 1.26 | 4.23 | 1.12 | 2.82 | 1.61 | 4.45 | 1
AAARPYHIQKW [ACSBG1_Y677] | 1.19 | 1.27 | 1.41 | 0.462 | 0.682 | 0.465 | 0.673 | 0.377 | 0.584 | 0.601 | 0.543 | 0.675 | 0.468 | 0.371 | 0.62 | 0.279
AAFNRYDQERF [CDC73_Y293_YF] | 0.448 | 0.549 | 0.866 | 0.394 | 0.609 | 0.473 | 0.684 | 0.398 | 0.504 | 0.665 | 0.397 | 0.856 | 0.402 | 0.469 | 0.427 | 0.463
AAVDEYLEYRR [FAM221A_Y17] | 0.539 | 1.17 | 0.846 | 0.513 | 1.21 | 0.477 | 0.698 | 0.469 | 0.522 | 1.1 | 0.863 | 1 | 0.531 | 0.62 | 0.925 | 0.401
AAVDNYCRHNF [HLA-DRB1_Y107_T106N_YF] | 0.583 | 0.772 | 0.877 | 0.442 | 0.928 | 0.234 | 0.484 | 0.326 | 1.33 | 0.41 | 0.203 | 0.53 | 0.753 | 0.587 | 0.349 | 0.471
AAVLNYKAGRD [GRIN2A_Y737] | 0.447 | 0.44 | 0.835 | 0.382 | 0.469 | 0.33 | 0.389 | 0.41 | 0.379 | 0.461 | 0.322 | 0.482 | 0.352 | 0.397 | 0.432 | 0.342
ADARMYGVHPW [PLP1_Y207_L210H] | 0.465 | 0.477 | 0.653 | 0.38 | 0.521 | 0.493 | 0.53 | 0.391 | 0.481 | 0.604 | 2.42 | 0.726 | 0.458 | 4.81 | 3.64 | 0.355
ADCRYYTFPQM [GAMT_Y223_A224T] | 3.2 | 1.34 | 1.05 | 10.9 | 4.44 | 2.84 | 1.99 | 9.97 | 7.83 | 3.09 | 3.29 | 0.998 | 4.67 | 3.97 | 4.77 | 4.67
ADEEYYEIIAA [FEStide_no-pY_2014] | 1.01 | 0.647 | 0.956 | 9.19 | 1.31 | 0.795 | 1.14 | 1.53 | 7.62 | 3.85 | 2.32 | 1.48 | 1.02 | 2.17 | 2.47 | 5.58
ADKSAYLMGLN [MYH7_Y386] | 0.467 | 0.793 | 0.88 | 0.526 | 0.67 | 0.465 | 0.467 | 0.502 | 0.579 | 0.625 | 0.524 | 0.671 | 0.405 | 0.543 | 0.535 | 0.549
ADLTEYLSTHY [UQCRC1_Y219] | 0.638 | 0.716 | 1.13 | 0.52 | 0.908 | 0.622 | 0.649 | 0.462 | 0.697 | 1.01 | 0.555 | 0.972 | 0.58 | 0.549 | 0.625 | 0.553
ADRTRYSAFGG [RBM4_Y361_A359T] | 0.617 | 1.08 | 0.897 | 0.391 | 0.551 | 0.356 | 0.495 | 0.382 | 0.44 | 0.599 | 0.37 | 0.797 | 0.345 | 0.413 | 0.399 | 0.4
ADYPDCKYRPR [SOX11_Y116_Y116C] | 0.634 | 0.799 | 0.833 | 0.606 | 0.657 | 0.51 | 0.706 | 0.41 | 0.626 | 0.733 | 0.416 | 0.955 | 0.496 | 0.427 | 0.406 | 0.426
ADYYDYGRGLS [KHDRBS3_Y304_H306R] | 0.564 | 6.25 | 0.698 | 17.9 | 6.26 | 17.4 | 0.967 | 3.88 | 15.5 | 3.83 | 7.62 | 0.831 | 15.9 | 6.79 | 4.1 | 1.22
